This is an account of results in publication PMC6018088.

Data set [1] deals with T1, Fur (Vibrio cholerae O1 El Tor C7258?) (UniProt P0C6C8).
T1 sequence: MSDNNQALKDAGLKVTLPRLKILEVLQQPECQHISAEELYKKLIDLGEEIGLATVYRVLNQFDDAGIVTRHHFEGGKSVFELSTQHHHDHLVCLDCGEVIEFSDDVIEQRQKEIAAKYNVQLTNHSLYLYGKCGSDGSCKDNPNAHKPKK
Put plainly: DNase I footprinting. The following applies: DNase I footprinting with FAM/HEX-labeled probes and RQ1 DNase I; buffer, salt, pH and temperature not given (cites earlier work).

The target of data set [2] is T2, HapR (Vibrio cholerae O1 El Tor C7258?) (UniProt Q4F6W7).
T2 sequence: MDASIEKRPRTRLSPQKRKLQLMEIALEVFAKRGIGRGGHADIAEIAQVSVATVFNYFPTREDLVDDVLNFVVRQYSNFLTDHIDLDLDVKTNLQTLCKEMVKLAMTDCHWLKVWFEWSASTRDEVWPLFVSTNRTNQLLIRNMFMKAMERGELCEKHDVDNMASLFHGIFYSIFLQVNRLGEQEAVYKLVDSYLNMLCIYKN
Kind of data set: DNase I footprinting. The following applies: […]; buffer, pH and temperature not given ([…].

Regarding “GTAAAACGACGGCCAGTCTTATGTGTAAGCGTATTGAAATCTTTAGAGTTAAAATGGAGAACTTAACTTTTTTTAAATTATTCAATTAATCTTTAAATCAACCTTATAAATTAATTCAGACTAAATTAGTTCAAATTAAATTAGGCTCATTAAATAATATGAATATCAGTAATTGTTATTTTAGGAAGAAATTATTTTACAGCAAATAAAAAGTCTTTAGAGGCTAAAATCTGTGATCCGGTCATAGCTGTTTCCTG (double strand) [hlyA promoter fragment]”, the binding result in data set [1] and in data set [2] was “binds” in each case.
